{"source": "patent US11453711B2", "about": "“Fusion proteins of GLP-1 and GDF15 and conjugates thereof” (BEIJING QL BIOPHARMACEUTICAL CO., LTD., priority 2019, dated 2022)", "molecules": {"B1": {"name": "MLC012: fusion polypeptide SEQ ID NO: 259 conjugated with Moiety A at 12K of Linker (conjugate)", "chain": "HGEGTFTSDVSSYLEEQAAREFIAWLVRGGGGQEPGQEPGQEKGQEPGQEPGQEPGQEPGQEPGQEPGQEPARQGDHCPLGPGRCCRLHTVRASLEDLGWADWVLSPREVQVTMCIGACPSQFRAANLHAQIKTSLHRLRPDTVPAPCCVPASYNPMVLIQRTDTGVSLQTYDDLLARDCHCI", "modifications": "Moiety A conjugated at linker K12"}, "B2": {"name": "MLC014: negative control, SEQ ID NO: 261: linker fused to N terminal of GDF15, CRM conjugated to lysine in the linker; GDF15 derivative (conjugate)", "chain": "SEPATSGQEKGQEPGQEPGQEPGQEPGQEPGAQPGAQPARQGDHCPLGPGRCCRLHTVRASLEDLGWADWVLSPREVQVTMCIGACPSQFRAANLHAQIKTSLHRLRPDTVPAPCCVPASYNPMVLIQRTDTGVSLQTYDDLLARDCHCI", "modifications": "CRM conjugated to linker lysine", "notes": "GDF15 derivative"}, "B3": {"name": "MLC043: fusion polypeptide SEQ ID NO: 326 conjugated with Moiety A at 26K of GLP-1 (conjugate)", "chain": "HGEGTFTSDVSSYLEEQAAKEFIAWLVRGGGGQEPGAQPGQEPGAQPGQEPGAQPGQEPGAQPGQEPGAQPGQEPGAQPGAQPGAQPGAQPARQGDHCPLGPGRCCRLHTVRASLEDLGWADWVLSPREVQVTMCIGACPSQFRAANLHAQIKTSLHRLRPDTVPAPCCVPASYNPMVLIQRTDTGVSLQTYDDLLARDCHCI", "modifications": "Moiety A conjugated at K26"}, "B4": {"name": "MLC027: fusion polypeptide SEQ ID NO: 274 conjugated with Moiety A at 55K of Linker (conjugate)", "chain": "HGEGTFTSDVSSYLEEQAAREFIAWLVRGGGGAQPGAQPGAQPGAQPGAQPGAQPGAQPGAQPGQEPGAQPGQEPGAQPGQEPGQKPGQEPGQEPGQEPGQEPGAQPGAQPARQGDHCPLGPGRCCRLHTVRASLEDLGWADWVLSPREVQVTMCIGACPSQFRAANLHAQIKTSLHRLRPDTVPAPCCVPASYNPMVLIQRTDTGVSLQTYDDLLARDCHCI", "modifications": "Moiety A conjugated at linker K55"}, "B5": {"name": "MLC045: fusion polypeptide SEQ ID NO: 328 conjugated with Moiety A at 1K and 55K of Linker (conjugate)", "chain": "HGEGTFTSDVSSYLEEQAAREFIAWLVRGGGKQEPGAQPGQEPGAQPGQEPGAQPGQEPGAQPGQEPGAQPGQEPGAQPGAQPGAKPGAQPGAQPGAQPGAQPGAQPGAQPARQGDHCPLGPGRCCRLHTVRASLEDLGWADWVLSPREVQVTMCIGACPSQFRAANLHAQIKTSLHRLRPDTVPAPCCVPASYNPMVLIQRTDTGVSLQTYDDLLARDCHCI", "modifications": "Moiety A conjugated at linker K1, K55"}, "B6": {"name": "MLC084: fusion polypeptide SEQ ID NO: 376 conjugated with Moiety C at 39C of Linker (conjugate)", "chain": "B5 chain with R20K, K32G, A69Q, Q70C, K86Q, R180K, R202K, R218K", "modifications": "Moiety C conjugated at linker Cys39"}, "B7": {"name": "MLC083: fusion polypeptide SEQ ID NO: 376 conjugated with Moiety B at 39C of Linker (conjugate)", "chain": "B5 chain with R20K, K32G, A69Q, Q70C, K86Q, R180K, R202K, R218K", "modifications": "Moiety B conjugated at linker Cys39"}, "B8": {"name": "MLC080: fusion polypeptide SEQ ID NO: 374 conjugated with Moiety B at 35C of Linker (conjugate)", "chain": "B5 chain with R20K, K32G, E66C, A81Q, Q82E, K86Q, R180K, R202K, R218K", "modifications": "Moiety B conjugated at linker C35"}, "B9": {"name": "MLC081: fusion polypeptide SEQ ID NO: 374 conjugated with Moiety C at 35C of Linker (conjugate)", "chain": "B5 chain with R20K, K32G, E66C, A81Q, Q82E, K86Q, R180K, R202K, R218K", "modifications": "Moiety C conjugated at linker Cys35"}, "B10": {"name": "MLC018: fusion polypeptide SEQ ID NO: 265 conjugated with Moiety A at 52K of Linker (conjugate)", "chain": "HGEGTFTSDVSSYLEEQAAREFIAWLVRGGGGQEPGAQPGQEPGAQPGQEPGAQPGQEPGAQPGQEPGAQPGQEPGAQPGQEKGAQPGQEPGAQPGQEPGAQPGQEPGAQPARQGDHCPLGPGRCCRLHTVRASLEDLGWADWVLSPREVQVTMCIGACPSQFRAANLHAQIKTSLHRLRPDTVPAPCCVPASYNPMVLIQRTDTGVSLQTYDDLLARDCHCI", "modifications": "Moiety A conjugated at linker K52"}, "B11": {"name": "MLC103: fusion polypeptide SEQ ID NO: 390 conjugated with Moiety A at 71K of Linker (conjugate)", "chain": "B5 chain with K32G, K86Q, Q102K", "modifications": "Moiety A conjugated at linker Lys71"}, "B12": {"name": "MLC104: fusion polypeptide SEQ ID NO: 391 conjugated with Moiety A at 76K of Linker (conjugate)", "chain": "B5 chain with K32G, K86Q, P107K", "modifications": "Moiety A conjugated at linker Lys76"}, "B13": {"name": "MLC064: fusion polypeptide SEQ ID NO: 359 conjugated with Moiety A at 51K of Linker (conjugate)", "chain": "B5 chain with K32G, Q82K, K86Q", "modifications": "Moiety A conjugated at linker K51"}, "B14": {"name": "MLC046: fusion polypeptide SEQ ID NO: 329 conjugated with Moiety A at 60K of linker (conjugate)", "chain": "B5 chain with K32G, K86Q, P91K", "modifications": "Moiety A conjugated at linker K60"}, "B15": {"name": "MLC030: fusion polypeptide SEQ ID NO: 277 conjugated with Moiety A at 15K of Linker (conjugate)", "chain": "HGEGTFTSDVSSYLEEQAAREFIAWLVRGGGGQEPGQEPGQEPGQKPGQEPGQEPGQEPGQEPGAQPGAQPGAQPGAQPGAQPGAQPGAQPGAQPGAQPGAQPGAQPGAQPARQGDHCPLGPGRCCRLHTVRASLEDLGWADWVLSPREVQVTMCIGACPSQFRAANLHAQIKTSLHRLRPDTVPAPCCVPASYNPMVLIQRTDTGVSLQTYDDLLARDCHCI", "modifications": "Moiety A conjugated at linker K15"}}, "note": "Residue numbers refer to the chain shown, from its start."}
{"assay": "Body weight and food intake in C57BL/6 mice, fusion protein conjugates, 30 nmol/kg daily 10 days", "type": "in vivo", "protocol": "10 week old male C57BL/6 mice were injected everyday subcutaneously with 15 nmol/kg of the fusion protein conjugates (i.e., MLC002, MLC 004, MLC 005, MLC 006, MLC 007, MLC 008, and MLC 009) for 14 days. Food intake and body weight were measured daily and five animals were used for each treatment group. Body weight (BW) was monitored for each individual animal, but food intake for each group animals was measured together. Day 1 and Day 14 are first day and last day of molecule dosage. % BW loss=100*(BW on Day n-BW on Day 1)/(BW on Day 1). Cumulative food intake on Day n represents sum of food intake from Day 1 to Day n. Data are indicated as mean values and standard error (SEM) or pooled values. Statistical analysis was performed by One-way ANOVA. Body weight reduction on Day 11 is calculated by −1*(% BW loss−% BW loss of vehicle group); Cumulative food intake reduction is calculated by −100*(cumulative food intake-cumulative food intake of vehicle)/cumulative food intake of vehicle.\nData were calculated in the same way as described above. Day 1 and Day 10 are first day and last day of the administration.\nMLC014 was used as a negative control. MLC014 has an amino acid sequence of SEQ ID NO: 261, which contains a linker fused to the N terminal of GDF15, with a CRM conjugated to the lysine residue in the linker. Tirzepatide was also used as a control.", "units": {"Body weight reduction at 30 nmol/kg (% reduction compared to vehicle)(Day11)": "%", "Cumulative food intake reduction at 30 nmol/kg (% reduction compared to vehicle)(Day11)": "%"}}
{"molecule": "Tirzepatide [reference compound]", "Body weight reduction at 30 nmol/kg (% reduction compared to vehicle)(Day11)": 10.5, "Cumulative food intake reduction at 30 nmol/kg (% reduction compared to vehicle)(Day11)": 23.0}
{"molecule": "B1", "Body weight reduction at 30 nmol/kg (% reduction compared to vehicle)(Day11)": 30.6, "Cumulative food intake reduction at 30 nmol/kg (% reduction compared to vehicle)(Day11)": 37.2}
{"molecule": "B2", "Body weight reduction at 30 nmol/kg (% reduction compared to vehicle)(Day11)": 9.5, "Cumulative food intake reduction at 30 nmol/kg (% reduction compared to vehicle)(Day11)": 27.3}
{"molecule": "B3", "Body weight reduction at 30 nmol/kg (% reduction compared to vehicle)(Day11)": 17.4, "Cumulative food intake reduction at 30 nmol/kg (% reduction compared to vehicle)(Day11)": 30.5}
{"molecule": "B4", "Body weight reduction at 30 nmol/kg (% reduction compared to vehicle)(Day11)": 19.1, "Cumulative food intake reduction at 30 nmol/kg (% reduction compared to vehicle)(Day11)": 40.7}
{"molecule": "B5", "Body weight reduction at 30 nmol/kg (% reduction compared to vehicle)(Day11)": 20.6, "Cumulative food intake reduction at 30 nmol/kg (% reduction compared to vehicle)(Day11)": 27.8}
{"molecule": "B6", "Body weight reduction at 30 nmol/kg (% reduction compared to vehicle)(Day11)": 20.7, "Cumulative food intake reduction at 30 nmol/kg (% reduction compared to vehicle)(Day11)": 36.2}
{"molecule": "B7", "Body weight reduction at 30 nmol/kg (% reduction compared to vehicle)(Day11)": 21.6, "Cumulative food intake reduction at 30 nmol/kg (% reduction compared to vehicle)(Day11)": 50.5}
{"molecule": "B8", "Body weight reduction at 30 nmol/kg (% reduction compared to vehicle)(Day11)": 17.2, "Cumulative food intake reduction at 30 nmol/kg (% reduction compared to vehicle)(Day11)": 33.2}
{"molecule": "B9", "Body weight reduction at 30 nmol/kg (% reduction compared to vehicle)(Day11)": 21.5, "Cumulative food intake reduction at 30 nmol/kg (% reduction compared to vehicle)(Day11)": 39.0}
{"molecule": "B10", "Body weight reduction at 30 nmol/kg (% reduction compared to vehicle)(Day11)": 23.5, "Cumulative food intake reduction at 30 nmol/kg (% reduction compared to vehicle)(Day11)": 48.1}
{"molecule": "B11", "Body weight reduction at 30 nmol/kg (% reduction compared to vehicle)(Day11)": 23.3, "Cumulative food intake reduction at 30 nmol/kg (% reduction compared to vehicle)(Day11)": 36.2}
{"molecule": "B12", "Body weight reduction at 30 nmol/kg (% reduction compared to vehicle)(Day11)": 22.7, "Cumulative food intake reduction at 30 nmol/kg (% reduction compared to vehicle)(Day11)": 29.4}
{"molecule": "B13", "Body weight reduction at 30 nmol/kg (% reduction compared to vehicle)(Day11)": 24.0, "Cumulative food intake reduction at 30 nmol/kg (% reduction compared to vehicle)(Day11)": 43.6}
{"molecule": "B14", "Body weight reduction at 30 nmol/kg (% reduction compared to vehicle)(Day11)": 24.6, "Cumulative food intake reduction at 30 nmol/kg (% reduction compared to vehicle)(Day11)": 41.4}
{"molecule": "B15", "Body weight reduction at 30 nmol/kg (% reduction compared to vehicle)(Day11)": 22.0, "Cumulative food intake reduction at 30 nmol/kg (% reduction compared to vehicle)(Day11)": 29.1}
